B1: Cross317×Trop2 (bispecific antibody)
scFv: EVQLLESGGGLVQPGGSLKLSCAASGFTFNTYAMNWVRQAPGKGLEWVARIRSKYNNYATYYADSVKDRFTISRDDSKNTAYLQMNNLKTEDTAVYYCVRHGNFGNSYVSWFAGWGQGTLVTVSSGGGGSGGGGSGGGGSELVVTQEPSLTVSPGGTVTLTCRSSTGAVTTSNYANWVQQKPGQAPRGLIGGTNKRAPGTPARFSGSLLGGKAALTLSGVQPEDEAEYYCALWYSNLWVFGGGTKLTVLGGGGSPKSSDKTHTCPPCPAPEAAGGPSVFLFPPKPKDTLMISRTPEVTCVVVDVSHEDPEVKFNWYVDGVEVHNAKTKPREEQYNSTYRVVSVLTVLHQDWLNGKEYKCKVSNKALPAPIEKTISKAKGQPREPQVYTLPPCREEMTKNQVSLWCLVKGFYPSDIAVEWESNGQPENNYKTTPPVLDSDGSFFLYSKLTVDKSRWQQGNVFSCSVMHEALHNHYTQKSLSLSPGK
heavy: QVQLQQSGSELKKPGASVKVSCKASGYTFTNYGMNWVKQAPGQGLKWMGWINTYTGEPTYTDDFKGRFAFSLDTSVSTAYLQISSLKADDTAVYFCARGGFGSSYWYFDVWGQGSLVTVSSASTKGPSVFPLAPSSKSTSGGTAALGCLVKDYFPEPVTVSWNSGALTSGVHTFPAVLQSSGLYSLSSVVTVPSSSLGTQTYICNVNHKPSNTKVDKKVEPKSSDKTHTCPPCPAPEAAGGPSVFLFPPKPKDTLMISRTPEVTCVVVDVSHEDPEVKFNWYVDGVEVHNAKTKPREEQYNSTYRVVSVLTVLHQDWLNGKEYKCKVSNKALPAPIEKTISKAKGQPREPQVCTLPPSREEMTKNQVSLSCAVKGFYPSDIAVEWESNGQPENNYKTTPPVLDSDGSFFLVSKLTVDKSRWQQGNVFSCSVMHEALHNHYTQKSLSLSPGK
light: DIQLTQSPSSLSASVGDRVSITCKASQDVSIAVAWYQQKPGKAPKLLIYSASYRYTGVPDRFSGSGSGTDFTLTISSLQPEDFAVYYCQQHYITPLTFGAGTKVEIKRTVAAPSVFIFPPSDEQLKSGTASVVCLLNNFYPREAKVQWKVDNALQSGNSQESVTEQDSKDSTYSLSSTLTLSKADYEKHKVYACEVTHQGLSSPVTKSFNRGEC
B2: Cross310×PDL1 (bispecific antibody, human IgG1, kappa, L234A L235A)
scFv: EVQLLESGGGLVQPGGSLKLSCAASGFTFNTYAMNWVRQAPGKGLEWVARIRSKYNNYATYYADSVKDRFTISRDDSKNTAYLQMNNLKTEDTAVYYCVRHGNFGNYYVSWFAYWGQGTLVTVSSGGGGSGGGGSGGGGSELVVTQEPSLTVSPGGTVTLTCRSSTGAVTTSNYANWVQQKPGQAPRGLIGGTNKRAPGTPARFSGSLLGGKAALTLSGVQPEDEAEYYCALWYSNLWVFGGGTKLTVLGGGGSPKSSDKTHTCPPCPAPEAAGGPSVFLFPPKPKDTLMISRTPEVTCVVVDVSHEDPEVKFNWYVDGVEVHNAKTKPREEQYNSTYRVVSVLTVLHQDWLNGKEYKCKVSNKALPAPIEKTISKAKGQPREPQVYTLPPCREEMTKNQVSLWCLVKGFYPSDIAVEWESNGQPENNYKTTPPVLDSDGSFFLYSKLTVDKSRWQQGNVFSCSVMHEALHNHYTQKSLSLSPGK
heavy: QVQLVQSGAEVKKPGASVKVSCKASGYSFTGYYMHWVRQAPGQGLEWIGRINPYNGATTYSQNFKDRATMTVDTSISTAYMELSRLRSDDTAVYYCVPTGMGYFLMDYWGQGTLVTVSSASTKGPSVFPLAPSSKSTSGGTAALGCLVKDYFPEPVTVSWNSGALTSGVHTFPAVLQSSGLYSLSSVVTVPSSSLGTQTYICNVNHKPSNTKVDKKVEPKSCDKTHTCPPCPAPEAAGGPSVFLFPPKPKDTLMISRTPEVTCVVVDVSHEDPEVKFNWYVDGVEVHNAKTKPREEQYNSTYRVVSVLTVLHQDWLNGKEYKCKVSNKALPAPIEKTISKAKGQPREPQVCTLPPSREEMTKNQVSLSCAVKGFYPSDIAVEWESNGQPENNYKTTPPVLDSDGSFFLVSKLTVDKSRWQQGNVFSCSVMHEALHNHYTQKSLSLSPGK
light: DIQLTQSPSFLSASVGDRVTITCKASQDVGSAVVWYQQKPGKAPKLLIYWASTRHTGVPSRFSGSGSGTEFTLTISSLQPEDFATYFCQQFTSYPTFGQGTKLEIKRTVAAPSVFIFPPSDEQLKSGTASVVCLLNNFYPREAKVQWKVDNALQSGNSQESVTEQDSKDSTYSLSSTLTLSKADYEKHKVYACEVTHQGLSSPVTKSFNRGEC
B3: Cross326×PDL1 (bispecific antibody, human IgG1, kappa, L234A L235A)
scFv: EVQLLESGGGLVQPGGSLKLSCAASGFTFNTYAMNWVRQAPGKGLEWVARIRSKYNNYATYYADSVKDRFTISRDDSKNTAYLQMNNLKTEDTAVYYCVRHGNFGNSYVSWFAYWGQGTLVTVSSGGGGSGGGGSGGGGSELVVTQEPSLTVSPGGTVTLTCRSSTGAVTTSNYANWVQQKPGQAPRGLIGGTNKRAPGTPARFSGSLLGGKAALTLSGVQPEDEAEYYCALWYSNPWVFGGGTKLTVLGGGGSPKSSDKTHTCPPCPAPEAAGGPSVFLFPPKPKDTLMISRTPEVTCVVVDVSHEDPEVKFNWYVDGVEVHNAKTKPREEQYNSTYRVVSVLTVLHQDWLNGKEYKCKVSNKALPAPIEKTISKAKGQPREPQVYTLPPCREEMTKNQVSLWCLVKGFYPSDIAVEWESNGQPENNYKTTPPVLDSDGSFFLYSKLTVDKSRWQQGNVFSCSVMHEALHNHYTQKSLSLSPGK
heavy: B2 heavy
light: B2 light

Legend:
CD3E&D protein = target: T1, CD3E&D protein (UniProt P04234 22-105); experiment: ELISA, coated CD3E&D protein, OD450
T1 construct: Purchased from Acro; also called CD3 E&D antigens; CD3E&D antigen protein
T1 sequence (chain, as listed by the source limits assumed, chain 1 of 2): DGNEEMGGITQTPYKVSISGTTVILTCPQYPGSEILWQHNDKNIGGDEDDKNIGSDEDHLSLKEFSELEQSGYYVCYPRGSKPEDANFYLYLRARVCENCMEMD
T1 sequence (P04234 22-105 limits assumed, chain 2 of 2): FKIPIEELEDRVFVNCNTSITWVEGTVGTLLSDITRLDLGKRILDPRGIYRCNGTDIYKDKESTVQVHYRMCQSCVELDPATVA
Description: In this example, the binding properties of the CD3×Trop2 and CD3×PDL1 bispecific antibody (the production method and the amino acid sequences of the heavy and light chains were shown in Example 1) were detected by using ELISA. The CD3E&D, Trop2, or PDL1 protein was coated onto 96-well plates by inventors, and the strength of the signal after the addition of the antibody was used to determine the binding properties of the antibody and the corresponding protein.
(1) CD3E&D protein (purchased from Acro) was diluted to 2 μg/ml with PBS buffer, added to a 96-well plate at a volume of 100 μL/well, and placed at 4° C. overnight. The PBS buffer in the 96-well plate was aspirated, and the plate was washed 6 times with PBST (pH 7.2 PBS containing 0.1% Tween 20) buffer. Then, 200 μL/well PBS/10% BSA was added and incubated at 37° C. for 2 h for blocking. The blocking solution was removed, and the plate was washed 6 times with PBST. […] The absorbance was read at 450 nm using a microplate reader.

Trop2 protein = target: T2, Trop2 protein (UniProt P09758 27-274); experiment: ELISA, coated Trop2 protein, OD450
T2 construct: Bought recombinant protein; also called Trop2-Biotin protein (biotin-labelled, bridging ELISA)
T2 sequence (looked up): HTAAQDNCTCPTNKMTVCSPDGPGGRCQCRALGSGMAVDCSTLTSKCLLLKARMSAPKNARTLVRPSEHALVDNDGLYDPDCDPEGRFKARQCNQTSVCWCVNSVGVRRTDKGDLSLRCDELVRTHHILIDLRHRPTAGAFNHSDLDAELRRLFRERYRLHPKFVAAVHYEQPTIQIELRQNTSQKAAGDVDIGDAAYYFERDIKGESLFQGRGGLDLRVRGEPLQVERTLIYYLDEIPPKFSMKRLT
In short: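 Plates coated overnight at 4° C with Trop2 at 2 μg/ml, blocked with PBS/10% BSA; serially diluted bispecifics bound 1 h at 37° C. Detection by HRP anti-human Fab secondary, TMB 3 min, acid stop, OD450.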

[1] = target: T3, Trop2 on A-375-Trop2 melanoma cells (UniProt P09758 27-323, limits assumed); experiment: flow cytometry, A-375-Trop2 cells, MFI [panel B]
T3 construct: whole, on cells
T3 sequence (looked up): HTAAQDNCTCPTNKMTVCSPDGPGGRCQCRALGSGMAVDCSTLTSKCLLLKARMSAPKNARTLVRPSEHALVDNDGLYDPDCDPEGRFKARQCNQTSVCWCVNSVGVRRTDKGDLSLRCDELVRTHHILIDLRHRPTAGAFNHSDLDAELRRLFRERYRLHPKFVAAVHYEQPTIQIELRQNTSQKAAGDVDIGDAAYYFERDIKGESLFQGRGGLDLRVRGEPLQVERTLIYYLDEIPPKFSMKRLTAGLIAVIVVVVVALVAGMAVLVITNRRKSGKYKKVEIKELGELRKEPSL
In short: (§1)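 Cells were blocked with goat serum at 4° C for 30 min, then incubated with serially diluted bispecific antibodies or hIgG1LALA control at 4° C for 30 min. Bound antibody was detected with Alexa-647 anti-human IgG (4° C, 30 min, dark) and read by flow cytometry.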

PDL1 protein [2] = target: T4, PDL1 protein (UniProt Q9NZQ7 19-238); experiment: ELISA, coated PDL1 protein, OD450 [panel A]
T4 construct: Bought recombinant protein
T4 sequence (Q9NZQ7 19-238 limits assumed): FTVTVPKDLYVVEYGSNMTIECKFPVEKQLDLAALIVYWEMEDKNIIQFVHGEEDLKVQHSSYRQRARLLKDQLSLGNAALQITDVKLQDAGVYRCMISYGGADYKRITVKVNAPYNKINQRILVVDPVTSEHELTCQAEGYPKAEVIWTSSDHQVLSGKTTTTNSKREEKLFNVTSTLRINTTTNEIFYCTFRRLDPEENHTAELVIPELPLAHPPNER
In short: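 PDL1 protein coated at 2 μg/ml overnight at 4 °C, blocked with PBS/10% BSA; serially diluted bispecific antibodies or control IgG1LALA bound 1 h at 37 °C. Detection with HRP anti-human Fab secondary antibody and TMB for 3 min, stopped with sulfuric acid, absorbance at 450 nm.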

[3] = target: T5, PDL1 on A-375 melanoma cells, HCT-15 colorectal cancer cells and A549 lung cancer cells (UniProt Q9NZQ7 19-290, limits assumed); experiment: flow cytometry, HCT-15 cells, binding ratio % [panel A]
T5 construct: whole, on cells
T5 sequence (Q9NZQ7 19-290 limits assumed): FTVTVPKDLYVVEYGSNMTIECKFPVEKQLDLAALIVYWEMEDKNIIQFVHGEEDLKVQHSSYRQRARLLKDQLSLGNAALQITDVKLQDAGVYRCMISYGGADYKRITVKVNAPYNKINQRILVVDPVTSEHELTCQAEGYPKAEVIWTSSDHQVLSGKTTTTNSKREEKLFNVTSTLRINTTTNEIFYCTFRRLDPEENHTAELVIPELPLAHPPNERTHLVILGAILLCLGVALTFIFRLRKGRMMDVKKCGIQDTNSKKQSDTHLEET
Description: (2) The tumor cells were diluted to 2×10⁶/ml with PBS and added to a 1.5 ml EP tube at a volume of 100 μl/tube, and goat serum was added thereto at 10 μl/tube. The cells were blocked at 4° C. for 30 min. The serially diluted bispecific antibodies, Cross3×Trop2, Cross303×Trop2, Cross307×Trop2, Cross308×Trop2, Cross309×Trop2, Cross310×Trop2, Cross311×Trop2, Cross312×Trop2, Cross313×Trop2, Cross314×Trop2, Cross316×Trop2, Cross317×Trop2, Cross318×Trop2, Cross323×Trop2, Cross325×Trop2, Cross326×Trop2, and Cross3×PDL1, Cross303×PDL1, Cross307×PDL1, Cross308×PDL1, Cross309×PDL1, Cross310×PDL1, Cross311×PDL1, Cross312×PDL1, Cross313×PDL1, Cross314×PDL1, Cross316×PDL1, Cross317×PDL1, Cross318×PDL1, Cross323×PDL1, Cross325×PDL1, Cross326×PDL1, and control hIgG1LALA (purchased from Bio-Tech) were added and incubated at 4° C. for 30 min. 1 ml of PBS was added to the EP tube, followed by centrifugation at 3500 rpm for 5 min at 4° C. The supernatant was discarded, and the cells were washed again with PBS. After centrifugation, the supernatant was completely discarded, and the cells were resuspended with PBS at 100 μl/tube. Alexa-647-labeled goat anti-human IgG secondary antibody (purchased from Jackson lab) was added at 1 μl/tube and incubated at 4° C. in the dark for 30 min. The cells were washed twice with PBS, and the supernatant was completely discarded after centrifugation. […]

[4] = target: T5, PDL1 on A-375 melanoma cells, HCT-15 …; experiment: flow cytometry, A-375 cells, binding ratio % [panel A]
Description: (2) The tumor cells were diluted to 2×10⁶/ml with PBS and added to a 1.5 ml EP tube at a volume of 100 μl/tube, and goat serum was added thereto at 10 μl/tube. The cells were blocked at 4° C. for 30 min. The serially diluted bispecific antibodies, Cross3×Trop2, Cross303×Trop2, Cross307×Trop2, Cross308×Trop2, Cross309×Trop2, Cross310×Trop2, Cross311×Trop2, Cross312×Trop2, Cross313×Trop2, Cross314×Trop2, Cross316×Trop2, Cross317×Trop2, Cross318×Trop2, Cross323×Trop2, Cross325×Trop2, Cross326×Trop2, and Cross3×PDL1, Cross303×PDL1, Cross307×PDL1, Cross308×PDL1, Cross309×PDL1, Cross310×PDL1, Cross311×PDL1, Cross312×PDL1, Cross313×PDL1, Cross314×PDL1, Cross316×PDL1, Cross317×PDL1, Cross318×PDL1, Cross323×PDL1, Cross325×PDL1, Cross326×PDL1, and control hIgG1LALA (purchased from Bio-Tech) were added and incubated at 4° C. for 30 min. 1 ml of PBS was added to the EP tube, followed by centrifugation at 3500 rpm for 5 min at 4° C. The supernatant was discarded, and the cells were washed again with PBS. After centrifugation, the supernatant was completely discarded, and the cells were resuspended with PBS at 100 μl/tube. Alexa-647-labeled goat anti-human IgG secondary antibody (purchased from Jackson lab) was added at 1 μl/tube and incubated at 4° C. in the dark for 30 min. The cells were washed twice with PBS, and the supernatant was completely discarded after centrifugation. The cells were resuspended with PBS at 200 μl/tube and assay was performed using the flow cytometry.

[5] = target: T5, PDL1 on A-375 melanoma cells, HCT-15 …; experiment: flow cytometry, A549 cells, MFI [panel B]
In short: as §1

PDL1 protein [6] = target: T4, PDL1 protein; experiment: ELISA, coated PDL1 protein, OD450 [panel B]
Description: (3) PDL1 protein (purchased from Acro) was diluted to 2 μg/ml with PBS buffer, added to a 96-well plate at a volume of 100 μL/well, and placed at 4° C. overnight. The PBS buffer in the 96-well plate was aspirated, and the plate was washed 6 times with PBST (pH 7.2 PBS containing 0.10% Tween 20) buffer. Then, PBS/10% BSA was added at 200 μL/well and incubated at 37° C. for 2 h for blocking. The blocking solution was removed, and the plate was washed six times with PBST. Then, the to-be-tested bispecific antibodies serially diluted with PBST/0.05% BSA, Cross3×PDL1, Cross303×PDL1, Cross307×PDL1, Cross308×PDL1, Cross309×PDL1, Cross310×PDL1, Cross311×PDL1, Cross312×PDL1, Cross313×PDL1, Cross314×PDL1, Cross316×PDL1, Cross317×PDL1, Cross318×PDL1, Cross323×PDL1, Cross325×PDL1, Cross326×PDL1, and control IgG1LALA (purchased from Bio-Tech) were added at 100 μL/well, and incubated at 37° C. for 1 h. The reaction system was removed, and the plate was washed 6 times with PBST. Then, the cells were incubated at 37° C. for 1 h with HRP (horseradish peroxidase)-labeled anti-human secondary antibody (Fab specific) (purchased from Sigma) serially diluted with PBST/0.05% BSA at 100 μL/well. After the plate was washed six times with PBST, TMB (tetramethylbenzidine) was added at 80 μL/well and incubated at room temperature for 3 min. 4 M sulfuric acid was added at 80 μL/well to terminate the reaction. The absorbance was read at 450 nm using a microplate reader.

Binder	EC50 (read off the curve) (CD3E&D protein)	EC50 (read off the curve) (Trop2 protein)	EC50 (read off the curve) [1]	EC50 (read off the curve) (PDL1 protein [2])	EC50 (read off the curve) [3]	EC50 (read off the curve) [4]	EC50 (read off the curve) [5]	EC50 (read off the curve) (PDL1 protein [6])
B1	~1 µg/mL	~0.008 µg/mL	~1 µg/mL					
B2				~0.5 µg/mL	~0.7 µg/mL	~0.7 µg/mL	~2 µg/mL	
B3					~0.07 µg/mL	~0.07 µg/mL		~0.1 µg/mL
